Assay [1] addresses CD117-GFP transiently overexpressed in HEK293T cells (UniProt P10721 26-976). Kind of assay: cell-based or functional assay.
Assay [2] deals with T1, cyno CD117 (Macaca fascicularis, UniProt A0A7N9CP24).
T1 construct: antigen of the Carterra SPR kinetics; also called cynomolgus monkey CD117
Kind of assay: Carterra SPR, cyno CD117. The procedure:
(§1) To further evaluate the antibodies discovered during the screens, 21 clones were selected for detailed characterization and were analyzed for target binding kinetics by a Carterra SPR instrument. The binding kinetics of the anti-CD117 antibodies for human CD117, cynomolgus monkey CD117, and murine CD117 are shown in FIG. 29A-29B.

Assay [3] concerns the target T2, Cluster of differentiation 117 (CD117), antigen of epitope binning and ELISA (UniProt P10721 26-520, limits assumed).
T2 construct: also called tyrosine-protein kinase KIT; mast/stem cell growth factor receptor (SCFR)
Put plainly: Carterra SPR, human CD117. Here is the method: as §1

Assay [4] concerns the target T3, mouse CD117 (mouse, UniProt P05532).
T3 construct: antigen of the Carterra SPR kinetics; also called murine CD117
T3 sequence (receptor, looked up): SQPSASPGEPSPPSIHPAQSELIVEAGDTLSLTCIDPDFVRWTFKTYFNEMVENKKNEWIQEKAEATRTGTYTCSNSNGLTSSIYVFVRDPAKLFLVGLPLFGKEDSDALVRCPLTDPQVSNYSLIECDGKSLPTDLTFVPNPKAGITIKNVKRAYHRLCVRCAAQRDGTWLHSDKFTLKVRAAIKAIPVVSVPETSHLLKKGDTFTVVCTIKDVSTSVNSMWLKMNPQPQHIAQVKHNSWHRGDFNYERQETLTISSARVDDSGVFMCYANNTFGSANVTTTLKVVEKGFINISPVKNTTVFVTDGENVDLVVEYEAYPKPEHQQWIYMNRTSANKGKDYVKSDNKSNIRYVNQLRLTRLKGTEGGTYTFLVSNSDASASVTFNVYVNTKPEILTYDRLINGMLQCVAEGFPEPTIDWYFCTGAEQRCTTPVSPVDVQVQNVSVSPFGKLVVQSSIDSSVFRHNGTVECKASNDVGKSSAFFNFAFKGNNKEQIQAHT
Kind of assay: Carterra SPR, mouse CD117. Here is the method: as §1

Assay [5] concerns the target T4, CD117 transiently expressed on Expi293 cells (UniProt P10721 26-976, limits assumed).
T4 construct: whole, on cells; Two cassettes are described (P2A mVenus and direct mVenus fusion); also called CD117 transient cells; the transient cell line
Put plainly: FACS, MFI expressing / parental cells. Here is the method: (§2) The transient expression of CD117 was validated with a control antibody, Expi293 (FIGS. 17A-17B). Expi293, […], was transiently transfected with CD117 48-hours post-transfection. The secondary antibody used was APC Goat anti-human IgG (diluted 1:400). 100,000 cells per well were blocked with 1×PBS+0.5% BSA for 1 hour, stained with 100 μL of the primary antibody for 1 hour, and stained with the secondary antibody for one hour, all with 3× washes in between each staining.

Assay [6] has as its target T4, CD117 transiently expressed on Expi293 …. Put plainly: FACS cell binding, Expi293 transiently expressing CD117. Here is the method:
as §2

The target in assay [7] is T5, Sialic acid-binding immunoglobulin-like lectin 8 (SIGLEC-8), antigen of the Carterra SPR studies (UniProt Q9NYZ4 17-363, limits assumed). Kind of assay: Carterra SPR. The procedure, abridged: (§3)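 Antibodies came from synthetic antibody libraries, panned over four rounds with a bead-based strategy and screened by clonal ELISA. Chosen clones were expressed and purified before testing. Their binding kinetics to SIGLEC-8 were then measured by surface plasmon resonance on a Carterra instrument, giving rate constants and dissociation constants.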

Assay [8] deals with T6, SIGLEC-2.
T6 construct: also called CD22
Kind of assay: SPR cross-reactivity table. A digest of the protocol:
(§4)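 Purified antibodies against SIGLEC-8, first selected from synthetic libraries by four rounds of bead-based panning, were tested for cross-reactivity with related SIGLEC proteins by surface plasmon resonance on a Carterra instrument. Each protein tested has a dissociation constant or a binding result listed.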

For assay [9], the target named is T7, SIGLEC-3.
T7 construct: also called CD33
Kind of assay: SPR cross-reactivity table. A digest of the protocol: as §4

For assay [10], the target named is T8, SIGLEC-5 (limits assumed).
T8 construct: also called OB-BP-2
T8 receptor: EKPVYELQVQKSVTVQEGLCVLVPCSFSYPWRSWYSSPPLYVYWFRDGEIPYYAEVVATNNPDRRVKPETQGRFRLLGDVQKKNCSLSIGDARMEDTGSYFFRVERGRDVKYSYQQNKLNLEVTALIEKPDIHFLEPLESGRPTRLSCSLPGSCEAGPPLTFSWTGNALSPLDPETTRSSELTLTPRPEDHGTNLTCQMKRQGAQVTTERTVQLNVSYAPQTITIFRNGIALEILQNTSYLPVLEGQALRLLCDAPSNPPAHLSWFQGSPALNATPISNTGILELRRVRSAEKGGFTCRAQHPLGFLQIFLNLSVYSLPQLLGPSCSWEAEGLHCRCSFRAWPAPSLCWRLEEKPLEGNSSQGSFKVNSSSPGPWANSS
Kind of assay: SPR cross-reactivity table. A digest of the protocol:
as §4

In assay [11] the target is T9, SIGLEC-6.
T9 construct: also called OB-BP-1
Put plainly: SPR cross-reactivity table. A digest of the protocol: as §4

Assay [12] has as its target T10, SIGLEC-7.
T10 construct: also called p75/AIRM1
Kind of assay: SPR cross-reactivity table. The procedure, abridged: as §4

Assay [13] addresses T11, SIGLEC-8 transiently expressed on cells (UniProt Q9NYZ4 17-499, limits assumed).
T11 construct: whole, on cells; Two cassettes are described (P2A mVenus and direct mVenus fusion); also called the transient line; pTT5-SIGLEC-8 P2A mVenus
Kind of assay: cell binding titration, transient SIGLEC-8 line.

The target of assay [14] is T5, Sialic acid-binding immunoglobulin-like …. Kind of assay: Carterra SPR kinetics, summary table. The procedure, abridged: as §3

Numbering of substitutions follows the chain as printed.

T6 sequence (chain, as listed by the source limits assumed): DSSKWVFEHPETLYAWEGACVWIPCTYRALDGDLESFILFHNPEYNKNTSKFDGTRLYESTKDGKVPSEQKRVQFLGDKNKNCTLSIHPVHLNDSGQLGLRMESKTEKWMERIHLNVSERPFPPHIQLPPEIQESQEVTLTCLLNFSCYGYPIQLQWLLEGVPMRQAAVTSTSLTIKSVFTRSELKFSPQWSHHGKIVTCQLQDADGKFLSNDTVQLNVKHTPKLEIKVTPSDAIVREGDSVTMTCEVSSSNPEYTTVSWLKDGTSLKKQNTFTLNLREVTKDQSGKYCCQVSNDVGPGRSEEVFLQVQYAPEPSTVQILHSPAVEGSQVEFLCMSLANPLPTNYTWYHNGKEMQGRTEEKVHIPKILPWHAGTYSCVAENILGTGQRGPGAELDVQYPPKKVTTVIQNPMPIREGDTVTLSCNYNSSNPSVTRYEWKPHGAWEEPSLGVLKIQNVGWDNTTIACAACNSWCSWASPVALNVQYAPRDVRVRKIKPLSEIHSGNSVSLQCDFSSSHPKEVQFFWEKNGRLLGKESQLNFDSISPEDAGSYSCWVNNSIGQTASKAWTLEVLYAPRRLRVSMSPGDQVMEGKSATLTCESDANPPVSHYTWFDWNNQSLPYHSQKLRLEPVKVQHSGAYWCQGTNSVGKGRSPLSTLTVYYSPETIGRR
T1 sequence (A0A7N9CP24 entry or part of it): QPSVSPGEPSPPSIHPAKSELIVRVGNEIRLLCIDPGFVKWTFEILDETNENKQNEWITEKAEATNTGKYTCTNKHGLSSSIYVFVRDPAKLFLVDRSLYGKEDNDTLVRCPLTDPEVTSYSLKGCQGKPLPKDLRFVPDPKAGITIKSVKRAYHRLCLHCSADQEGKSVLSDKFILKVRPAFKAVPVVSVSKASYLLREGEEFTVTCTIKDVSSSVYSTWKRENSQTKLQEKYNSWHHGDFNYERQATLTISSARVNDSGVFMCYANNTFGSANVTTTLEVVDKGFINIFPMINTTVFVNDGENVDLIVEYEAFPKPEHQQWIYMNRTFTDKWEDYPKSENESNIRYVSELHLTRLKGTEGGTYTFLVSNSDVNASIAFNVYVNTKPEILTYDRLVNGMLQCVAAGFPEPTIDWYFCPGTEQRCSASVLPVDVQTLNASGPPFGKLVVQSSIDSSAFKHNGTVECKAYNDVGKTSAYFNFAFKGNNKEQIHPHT
T2 sequence (P10721 26-520 limits assumed): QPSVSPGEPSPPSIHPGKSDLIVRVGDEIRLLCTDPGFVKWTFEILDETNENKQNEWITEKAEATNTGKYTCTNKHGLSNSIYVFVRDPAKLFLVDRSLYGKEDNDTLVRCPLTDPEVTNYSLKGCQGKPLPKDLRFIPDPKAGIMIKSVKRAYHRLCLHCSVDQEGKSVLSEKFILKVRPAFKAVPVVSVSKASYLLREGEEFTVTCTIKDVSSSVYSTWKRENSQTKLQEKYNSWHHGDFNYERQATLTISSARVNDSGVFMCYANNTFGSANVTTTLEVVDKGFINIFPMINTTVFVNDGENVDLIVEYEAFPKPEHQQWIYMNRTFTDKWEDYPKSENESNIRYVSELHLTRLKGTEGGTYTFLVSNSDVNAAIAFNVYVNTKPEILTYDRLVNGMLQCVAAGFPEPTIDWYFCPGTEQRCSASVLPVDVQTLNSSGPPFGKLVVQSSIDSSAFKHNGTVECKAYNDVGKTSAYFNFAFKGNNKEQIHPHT
T5 sequence (Q9NYZ4 17-363 limits assumed): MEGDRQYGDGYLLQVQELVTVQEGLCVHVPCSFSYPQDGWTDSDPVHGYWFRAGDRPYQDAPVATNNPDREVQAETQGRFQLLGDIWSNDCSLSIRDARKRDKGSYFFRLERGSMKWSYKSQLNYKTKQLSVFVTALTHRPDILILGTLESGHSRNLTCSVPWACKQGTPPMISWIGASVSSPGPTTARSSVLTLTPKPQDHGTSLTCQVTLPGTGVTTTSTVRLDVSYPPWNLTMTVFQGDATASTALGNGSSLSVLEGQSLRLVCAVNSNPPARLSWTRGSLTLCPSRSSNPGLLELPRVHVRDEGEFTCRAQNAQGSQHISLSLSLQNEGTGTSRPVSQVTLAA
T4 sequence (P10721 26-976 limits assumed): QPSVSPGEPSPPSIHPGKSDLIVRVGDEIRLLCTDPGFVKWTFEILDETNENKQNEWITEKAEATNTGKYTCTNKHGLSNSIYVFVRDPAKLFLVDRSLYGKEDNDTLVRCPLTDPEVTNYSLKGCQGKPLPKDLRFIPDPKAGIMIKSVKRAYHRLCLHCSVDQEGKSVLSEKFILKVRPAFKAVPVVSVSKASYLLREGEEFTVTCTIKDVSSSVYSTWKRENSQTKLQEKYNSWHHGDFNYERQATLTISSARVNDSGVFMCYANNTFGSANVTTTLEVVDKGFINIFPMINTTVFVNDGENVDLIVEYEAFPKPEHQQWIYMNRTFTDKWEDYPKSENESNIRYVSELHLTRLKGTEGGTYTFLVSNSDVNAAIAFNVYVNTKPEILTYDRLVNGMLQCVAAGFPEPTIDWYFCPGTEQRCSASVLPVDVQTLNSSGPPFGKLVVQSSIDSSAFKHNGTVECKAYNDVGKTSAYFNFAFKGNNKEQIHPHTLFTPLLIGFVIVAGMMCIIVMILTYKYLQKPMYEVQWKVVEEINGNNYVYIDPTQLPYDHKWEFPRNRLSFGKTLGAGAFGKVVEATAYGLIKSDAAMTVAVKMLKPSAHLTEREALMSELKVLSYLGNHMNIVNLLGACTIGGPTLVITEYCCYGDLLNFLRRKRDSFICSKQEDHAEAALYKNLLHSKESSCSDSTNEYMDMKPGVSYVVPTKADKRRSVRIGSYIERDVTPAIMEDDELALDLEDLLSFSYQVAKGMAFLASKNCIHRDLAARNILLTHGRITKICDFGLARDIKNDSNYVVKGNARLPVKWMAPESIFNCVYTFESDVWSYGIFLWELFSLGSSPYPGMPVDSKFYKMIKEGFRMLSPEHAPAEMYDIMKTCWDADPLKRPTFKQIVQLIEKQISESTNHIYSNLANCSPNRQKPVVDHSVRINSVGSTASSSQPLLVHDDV
T11 sequence (Q9NYZ4 17-499 limits assumed): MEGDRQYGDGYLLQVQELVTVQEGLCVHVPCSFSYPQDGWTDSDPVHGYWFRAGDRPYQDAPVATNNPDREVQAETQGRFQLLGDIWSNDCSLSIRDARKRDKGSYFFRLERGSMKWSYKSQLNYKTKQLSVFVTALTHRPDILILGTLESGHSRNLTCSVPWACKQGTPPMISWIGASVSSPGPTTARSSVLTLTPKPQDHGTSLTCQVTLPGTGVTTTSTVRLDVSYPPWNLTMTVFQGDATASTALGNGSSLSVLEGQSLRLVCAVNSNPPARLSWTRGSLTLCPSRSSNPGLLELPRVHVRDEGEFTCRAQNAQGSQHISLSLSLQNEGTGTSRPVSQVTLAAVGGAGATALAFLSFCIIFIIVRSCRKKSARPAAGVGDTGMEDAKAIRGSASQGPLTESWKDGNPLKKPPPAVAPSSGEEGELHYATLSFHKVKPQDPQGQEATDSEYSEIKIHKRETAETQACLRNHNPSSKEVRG
T10 sequence (receptor, as listed by the source limits assumed): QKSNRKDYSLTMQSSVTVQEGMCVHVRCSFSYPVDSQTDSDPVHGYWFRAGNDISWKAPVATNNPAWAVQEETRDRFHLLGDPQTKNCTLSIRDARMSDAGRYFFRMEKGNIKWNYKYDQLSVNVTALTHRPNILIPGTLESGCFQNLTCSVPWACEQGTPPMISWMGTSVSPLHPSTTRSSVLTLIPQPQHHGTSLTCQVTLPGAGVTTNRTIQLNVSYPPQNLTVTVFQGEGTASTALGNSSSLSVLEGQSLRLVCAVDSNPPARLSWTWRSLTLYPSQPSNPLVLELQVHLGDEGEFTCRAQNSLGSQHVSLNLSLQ
T7 sequence (receptor, as listed by the source limits assumed): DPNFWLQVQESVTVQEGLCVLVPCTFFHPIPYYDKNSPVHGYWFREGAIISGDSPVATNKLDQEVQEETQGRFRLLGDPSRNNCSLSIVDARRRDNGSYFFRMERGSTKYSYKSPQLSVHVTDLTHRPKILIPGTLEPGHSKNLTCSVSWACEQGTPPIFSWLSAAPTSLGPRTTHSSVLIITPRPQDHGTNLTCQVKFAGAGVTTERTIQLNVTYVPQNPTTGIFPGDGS
T9 sequence (receptor, as listed by the source limits assumed): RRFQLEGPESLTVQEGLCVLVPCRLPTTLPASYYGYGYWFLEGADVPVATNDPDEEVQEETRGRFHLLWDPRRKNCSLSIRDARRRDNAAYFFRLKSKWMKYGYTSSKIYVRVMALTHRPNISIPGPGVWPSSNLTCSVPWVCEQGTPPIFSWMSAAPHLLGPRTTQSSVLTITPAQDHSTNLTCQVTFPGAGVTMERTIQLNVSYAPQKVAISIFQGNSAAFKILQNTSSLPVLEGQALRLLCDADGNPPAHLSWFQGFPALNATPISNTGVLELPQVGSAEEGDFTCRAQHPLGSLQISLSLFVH

B1: CD117-1 (antibody, human IgG1, kappa, V domains shown)
VH: EVQLLESGGGLVQPGGSLRLSCAASGFTLTSYAMSWVRQAPGKGLEWVSTISGSGGYTYYADSVKGRFTISRDNSKNTLYLQMNSLRAEDTAVYYCARDSGYDRGLDYWGQGTLVTVSS
VL: DIQMTQSPSSLSASVGDRVTITCRASQSVRTYLNWYQQKPGKAPKLLIYDASTLQSGVPSRFSGSGSGTDFTLTISSLQPEDFATYYCQQSYSSSITFGGGTKVEIKR
notes: detected with anti-human IgG in FACS
On to B1, for which, in [1], the “IC50, inhibition of the SCF-stimulated SRF reporter signal (FFLuc/RLuc); same row prints log(IC50) -9.366 and Span -0.2174” value stood at 4.31e-10 M. In [2], the equilibrium dissociation constant (Kd) came to 508 nM, the off-rate constant (koff) was found to be 0.16 s⁻¹ and the kon amounted to 315000 M⁻¹ s⁻¹. In assay [3], the Kd amounted to 189 nM, the off-rate constant (koff) was determined as 0.1 s⁻¹ and the association rate constant (kon) is 530000 M⁻¹ s⁻¹. For the same molecule, the binding result in assay [4] is given as “no binding”. Also, the “MFI Ratio” value in assay [5] amounted to 26.6. Also, in assay [6], the midpoint of the response, the EC50, lay at 23.8 nM.

B2: SIGLEC-8-57 (antibody, human IgG1, kappa, V domains shown)
VH: EVQLLESGGGLVQPGGSLRLSCAASGFAFSRYAMSWVRQAPGKGLEWVSGISGSGGRTHYADSVKGRFTISRDNSKNTLYLQMNSLRAEDTAVYYCARQSRGGSLGMDVWGQGTLVTVSS
VL: B1 VL with V29I, R30S, T31G, D50G, A51S, S94P, S95P, I96W
notes: tested as expressed and purified mAb
For B2, the Kd in assay [7] turned out to be 990 nM; in [10] it was 28.3 nM; in [11], 9.6 nM. The binding result in [8], in [9] and in assay [12] was “no binding” throughout. It took 1.73 nM to reach a half-maximal effect in [13] (EC50).

B3: CD117-7 (antibody, human IgG1, kappa, V domains shown)
VH: EVQLLESGGGLVQPGGSLRLSCAASGFTFSDYAMGWVRQAPGKGLEWVSGIGGSGGSAYYADSVKGRFTISRDNSKNTLYLQMNSLRAEDTAVYYCARGFDSTDGVDYWGQGTLVTVSS
VL: B1 VL with V29I, R30G, T31N, D50A, T53D, S56T, S91G, S94T, S95P, I96Y
notes: as for B1
Consider B3, for which, in [1], the “IC50, inhibition of the SCF-stimulated SRF reporter signal (FFLuc/RLuc); same row prints log(IC50) -9.451 and Span -0.1049” value was 3.54e-10 M. In [2], this molecule showed a Kd of 14.2 nM, a dissociation rate constant (koff) of 0.0159 s⁻¹ and an association rate constant (kon) of 1.12e+06 M⁻¹ s⁻¹. In assay [3], this molecule came in with a Kd of 22 nM, a dissociation rate constant (koff) of 0.0194 s⁻¹ and an association rate constant (kon) of 882000 M⁻¹ s⁻¹. Moreover, in assay [4], the binding result is listed as “no binding”. In [5], the “MFI Ratio” value came out at 21.9. The half-maximal effective concentration (EC50) in [6] turned out to be 4.01 nM.

B4: SIGLEC-8-44 (antibody, human IgG1, kappa, V domains shown)
VH: EVQLLESGGGLVQPGGSLRLSCAASGFTISSSAMTWVRQAPGKGLEWVSSISGGGGTTYYADSVKGRFTISRDNSKNTLYLQMNSLRAEDTAVYYCAREGAGYYYGMDVWGQGTLVTVSS
VL: B1 VL with V29I, R30G, T31N, D50A, T53R, S56G, S94T, S95P, I96L, T97S
notes: as for B2
With B4, the results for the dissociation constant (Kd) in assay [7], in assay [10] and in assay [11] were 0.517 nM, 6.7 nM and 35.2 nM, respectively. The binding result in assay [8], in assay [9] and in [12] was “no binding” in each case. The off-rate (koff) in [14] amounted to 0.000138 s⁻¹. For the same molecule, the on-rate constant (kon) in assay [14] stood at 267000 M⁻¹ s⁻¹. Besides, it took 1.07 nM to reach a half-maximal effect in assay [13] (EC50).

B5: CD117-14 (antibody, human IgG1, kappa, V domains shown)
VH: B3 VH
VL: DIQMTQSPSSLSASVGDRVTITCQTSQSVSSYLNWYQQKPGKAPKLLIYGASRLESGVPSRFSGSGSGTDFTLTISSLQPEDFATYYCQQSYKTPWTFGGGTKVEIKR
notes: as for B1
Consider B5, for which the “IC50, inhibition of the SCF-stimulated SRF reporter signal (FFLuc/RLuc); same row prints log(IC50) -9.67 and Span -0.1208” value in assay [1] was 2.14e-10 M. In addition, in [2], the Kd amounted to 2.34 nM, the off-rate constant (koff) turned out to be 0.00146 s⁻¹ and the association rate constant (kon) was found to be 624000 M⁻¹ s⁻¹. Further, in [3], binding was put at a Kd of 2.53 nM, the koff is 0.00177 s⁻¹ and the kon amounted to 698000 M⁻¹ s⁻¹. For the same molecule, the binding result in [4] was “no binding”. In assay [5], the “MFI Ratio” value stood at 12.2. In addition, the EC50 in assay [6] was 0.0718 nM.

B6: SIGLEC-8-11 (antibody, human IgG1, kappa, V domains shown)
VH: EVQLLESGGGLVQPGGSLRLSCAASGLTFSNYDMSWVRQAPGKGLEWVSAISTSGGGSGGSTYYADSVKGRFTISRDNSKNTLYLQMNSLRAEDTAVYYCAREANNYYYGMDVWGQGTLVTVSS
VL: DIQMTQSPSSLSASVGDRVTITCRASQTISSYLHWYQQKPGKAPKLLIYAASSLHTGVPSRFSGSGSGTDFTLTISSLQPEDFATYYCQQSSSTPLTFGGGTKVEIKR
notes: as for B2
In the case of B6, the Kd in assay [7] was 0.217 nM; in assay [10], 29.7 nM. For the same molecule, the binding result in assay [8], in assay [9], in assay [11] and in [12] was “no binding” each time. The same molecule displayed a dissociation rate constant (koff) in assay [14] of 7.23e-05 s⁻¹. In [14], this molecule showed an on-rate constant (kon) of 334000 M⁻¹ s⁻¹. Moreover, it took 2.19 nM to reach a half-maximal effect in assay [13] (EC50).

B7: SIGLEC-8-58 (antibody, human IgG1, kappa, V domains shown)
VH: EVQLLESGGGLVQPGGSLRLSCAASGFTFRTSAMSWVRQAPGKGLEWVSSVSGSGSSTYYADSVKGRFTISRDNSKNTLYLQMNSLRAEDTAVYYCAKEGSYYYYGMDVWGQGTLVTVSS
VL: B5 VL with Q24R, T25A, S28T, V29I, S30G, S31R, R53S, E55Y, W96V
notes: as for B2
On to B7, for which the Kd amounted to 0.97 nM in [7] and 169 nM in assay [10]. For the same molecule, the binding result in assay [8], in assay [9], in [11] and in assay [12] was “no binding” each time. In assay [14], this molecule had a koff of 0.000127 s⁻¹. The association rate constant (kon) in assay [14] turned out to be 131000 M⁻¹ s⁻¹. Moreover, in assay [13], a half-maximal response (EC50) required 0.914 nM.

B8: CD117-6 (antibody, human IgG1, kappa, V domains shown)
VH: EVQLLESGGGLVQPGGSLRLSCAASGFTFSAYALTWVRQAPGKGLEWVSAISSSGGSTFYADSVKGRFTISRDNSKNTLYLQMNSLRAEDTAVYYCARVSRGYPRRSDSWGQGTLVTVSS
VL: DIQMTQSPSSLSASVGDRVTTTCRASQGISTYLNWYQQKPGKAPKLLIYGASRLQGGVPSRFSGSGSGTDFTLTISSLQPEDFATYYCQQGYSFPWTFGGGTKVEIKR
notes: as for B1
B8: in assay [1], the “IC50, inhibition of the SCF-stimulated SRF reporter signal (FFLuc/RLuc); same row prints log(IC50) -8.147 and Span -0.2026” value is 7.13e-09 M. For the same molecule, it took 0.116 nM to reach a half-maximal effect in assay [6] (EC50).

The values above are taken from patent US20260001953A1 (TWIST BIOSCIENCE, published 2026).
